Patent publication US20210283168A1, “BETA GLUCAN AND CD40 AGONIST COMBINATION IMMUNOTHERAPY” (HiberCell, Inc., priority 2018, published 2021)
Entries after “also recorded” stand apart in the source; their conditions may differ.

B1: ADC-1013 (antibody, chains of the INN, looked up, V domains shown)
VH: EVQLLESGGGLVQPGGSLRLSCAASGFTFSTYGMHWVRQAPGKGLEWLSYISGGSSYIFYADSVRGRFTISRDNSENALYLQMNSLRAEDTAVYYCARILRGGSGMDLWGQGTLVTVSS
VL: QSVLTQPPSASGTPGQRVTISCTGSSSNIGAGYNVYWYQQLPGTAPKLLIYGNINRPSGVPDRFSGSKSGTSASLAISGLRSEDEADYYCAAWDKSISGLVFGGGTKLTVL

How the values were obtained:
[1] = test system: KPC-derived PDAC cell line (7940B, P9); experiment: subcutaneous KPC-derived PDAC tumor model: tumor growth and overall survival; conditions: for anti-tumor activity / impact on tumor growth (in words): mouse, in vivo
[2] = intravenous infusion, more than 400 human subjects; cited from earlier work
FcR = conditions: cited from earlier work
CD40 [3] = target: T1, CD40 (Homo sapiens, UniProt P25942); conditions: binding to CD40; ADC-1013: even under acidic conditions (pH 5.4); read-out: binding affinity (Kd); cited from earlier work
CD40 [4] = target: T1, CD40; conditions: cited from earlier work; for dependence on crosslinking for activity: CD40 stimulation
[5] = target: CD40 ligand interaction with CD40 (Homo sapiens, UniProt P25942); conditions: cited from earlier work
B cell = conditions: cited from earlier work
B cell lymphoma lines = conditions: cited from earlier work
FcgRIIIa = FcgRIIIa (Homo sapiens, UniProt P08637); conditions: non-fucosylated, derived from dacetuzumab; cited from earlier work
Sequence of FcgRIIIa (P08637 17-254): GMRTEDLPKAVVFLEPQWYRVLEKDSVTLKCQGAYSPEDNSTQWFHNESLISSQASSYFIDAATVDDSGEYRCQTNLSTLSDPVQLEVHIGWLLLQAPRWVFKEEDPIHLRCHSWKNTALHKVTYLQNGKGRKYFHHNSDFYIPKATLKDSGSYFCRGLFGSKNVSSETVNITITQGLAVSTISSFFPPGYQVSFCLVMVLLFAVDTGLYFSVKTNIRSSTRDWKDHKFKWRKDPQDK

T1 sequence (P25942 21-277): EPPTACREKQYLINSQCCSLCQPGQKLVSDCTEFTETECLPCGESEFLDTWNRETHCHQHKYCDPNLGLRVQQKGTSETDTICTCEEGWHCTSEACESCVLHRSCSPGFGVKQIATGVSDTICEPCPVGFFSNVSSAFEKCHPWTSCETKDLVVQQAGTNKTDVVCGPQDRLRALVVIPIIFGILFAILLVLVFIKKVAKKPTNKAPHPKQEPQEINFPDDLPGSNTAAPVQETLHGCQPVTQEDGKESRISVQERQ
Sequence of CD40 ligand interaction with CD40 (P25942 21-277): as above

Molecule | anti-tumor activity / impact on tumor growth (in words) [1] | Kd (CD40 [3]) [pM] | dependence on crosslinking for activity (CD40 [4]) | ability to block CD40 ligand binding [5] | agonist activity (CD40 [4]) | other results
β(1,6)-[poly-(1,3)-D-glucopyranosyl]-poly-β(1,3)-D-glucopyranose [IMPRIME PGG] | limited activity as monotherapy; also recorded: minimal activity | – | – | – | – | delay in tumor outgrowth / anti-tumor activity, previous experiment ([1]; previous experiment (data not shown)): 3 of 9; delay in tumor outgrowth (mice with delayed tumor growth) ([1]; single dose day 0: FGK45 0.1 mg i.p., IMPRIME PGG 1.2 mg i.v., gemcitabine 120 mg/kg day -2): 1 of 10; safety of systemic administration [2]: administered safely
Nc1ccn([C@@H]2O[C@H](CO)[C@@H](O)C2(F)F)c(=O)n1 [Gemcitabine, reference compound] | no significant impact on tumor growth | – | – | – | – | –
CP-870,893: anti-CD40 IgG2 antibody (Pfizer and VLST) | – | 348 | can mediate CD40 stimulation in the absence of cross-linking | does not block CD40 ligand interaction with CD40 | – | FcR binding (FcR): poor
Dacetuzumab: humanized IgG1 antibody recognizing CD40 (Seattle Genetics) | – | 1000 | – | enhances CD40 ligand binding to CD40 | partial agonist | activity in stimulating B cell proliferation (B cell): weak activity; anti-proliferative and pro-apoptotic properties against B cell lymphoma lines (B cell lymphoma lines): potent anti-proliferative and pro-apoptotic properties
SEA-CD40: non-fucosylated humanized IgG1 anti-CD40 antibody derived from dacetuzumab (Seattle Genetics) | – | 1000 | – | – | improved agonist activity | binding to FcgRIIIa (FcgRIIIa): enhanced binding
B1 | – | 10 | activity dependent on FcR binding and crosslinking | – | – | –
